B1: DARPin protein #2 (designed binder)
chain: DLGIKLLHAAFQGQDDEVRILLAAGADVNAKDKVGRTPLHRAAQWGHLEIVEVLLKAGADVNAKDHVGWTPLHLAAWRGHLEIVEVLLKAGADVNAQDASGFTPADLAARQGHEDIAEVLQKAA
B2: DARPin protein #5 (designed binder)
chain: DLGRKLLQAAARGQDDEVRELLKAGADVNAKDLLGRTPLHLAASIGHLEIVEVLLKAGADVNAKDERGFTPLHIAALQGHLEIVEVLLKAGADVNAQDLEGRTPADLAAEEGHEDIAEVLQKAA
B3: DARPin protein #8 (designed binder)
chain: B2 chain with R4K, E66S, I74L, L77I, Q78I, E100K, R102L, E110A
B4: DARPin protein #7 (designed binder)
chain: B2 chain with R4E, Q8K, F69Y, L77I, Q78V, L99A, E100R, R102A, E110R
B5: DARPin protein #3 (designed binder)
chain: DLGRKLLQAAARGQDDEVRELLKAGADVNAKDLHGRTPLHLAAAIGHLEIVEVLLKAGADVNAKDFLGWTPLHIAAFRGHLEIVEVLLKAGADVNAQDEAGETPADLAAQEGHEDIAEVLQKAA
B6: DARPin protein #6 (designed binder)
chain: B5 chain with F66V, L67F, W69Y, A100R, Q110E, E111A
B7: DARPin protein #4 (designed binder)
chain: DLGKKLLQAAARGQDDEVRELLKAGADVNAKDLKGRTPLHLAAATGHPEIVEVLLKAGADVNAKDQFGYTPLHIAAAWGHLEIVEVLLKAGADVNAQDQKGETPADLAAKEGHEDIAEVLQKAA
B8: DARPin protein #1 (designed binder)
chain: ALGKKLLQAAARGQDDEVRELLKAGADVNAKDLIGRTPLHLAASIGHLEIVEVLLKAGADVNAKDSRGWTPLHIAAVSGHLEIVEVLLKAGADVNAQDRAGATPADLAAAEGNEDIAEVLQKAA

Substitutions are numbered along the chain they refer to.

The target of the first experiment is human CD47-Fc (human). In words: SPR.
Sequence of human CD47-Fc (human) (chain, as listed by the source): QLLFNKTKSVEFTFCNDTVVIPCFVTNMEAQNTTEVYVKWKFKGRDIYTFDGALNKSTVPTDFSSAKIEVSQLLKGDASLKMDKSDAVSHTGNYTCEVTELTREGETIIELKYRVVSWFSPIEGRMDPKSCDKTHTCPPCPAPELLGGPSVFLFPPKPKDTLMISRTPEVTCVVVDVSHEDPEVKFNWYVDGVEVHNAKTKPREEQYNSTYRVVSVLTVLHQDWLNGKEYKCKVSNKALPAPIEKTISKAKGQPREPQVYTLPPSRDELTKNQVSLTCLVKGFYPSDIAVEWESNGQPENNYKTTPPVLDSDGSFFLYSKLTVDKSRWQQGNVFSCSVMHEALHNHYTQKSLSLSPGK
B1 displayed a Kd of 0.813 nM. This counts as sub-nanomolar.
B2 had a Kd of 0.552 nM.
B3 registered a Kd of 0.102 nM.
On the same count and under the same terms, as for B4, the figure is 0.352 nM.
B5 yielded an equilibrium dissociation constant (Kd) of 0.562 nM.
Consider B6, for which binding was characterised by a dissociation constant (Kd) of 0.24 nM.
On to B7, for which binding was characterised by a dissociation constant (Kd) of 0.244 nM.
The same measure, in the same setting: in the case of B8 it was 0.328 nM.

In another experiment the target is CD47 on Raji cells (human, UniProt Q08722). The experiment is described as follows: FACS, Raji cells, 4C.
Sequence of CD47 on Raji cells (Q08722 19-323): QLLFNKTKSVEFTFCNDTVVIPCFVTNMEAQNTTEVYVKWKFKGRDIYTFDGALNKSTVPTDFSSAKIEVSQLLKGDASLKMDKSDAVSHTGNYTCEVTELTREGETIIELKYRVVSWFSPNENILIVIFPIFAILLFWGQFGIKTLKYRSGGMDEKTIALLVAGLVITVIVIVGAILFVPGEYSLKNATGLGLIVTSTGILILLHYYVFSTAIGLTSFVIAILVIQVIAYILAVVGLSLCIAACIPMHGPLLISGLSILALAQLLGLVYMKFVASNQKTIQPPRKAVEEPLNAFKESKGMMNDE
With B1, a half-maximal response (EC50) required 20.9 nM.
With B2, the EC50 was found to be 45.5 nM.
The molecule B3 had an EC50 of 17.2 nM.
In turn, B4 had an EC50 of 28.5 nM.
As for B5, the EC50 was 58.4 nM.
Molecule B6 showed an EC50 of 48 nM.
Molecule B7 registered an EC50 of 74.7 nM.
As to B8, the EC50 turned out to be 40.4 nM.

Source of the values: patent publication US20260297190 (published 2026).
